B1: MYT0625 (antibody, V domains shown)
VH: QVQLVQSGAEVVKPGASVKISCKASGYTFTGYFMNWVKQSPGQSLEWIGRIHPYDGDTFYNQKFHGKATLTVDKSSNTAHMELLSLTSEDFAVYYCTRYDGSRAMDYWGQGTTVTVSS
VL: DIVLTQSPLSLAVSLGQPAIISCKASQSVSFAGTSLMHWYHQKPGQQPRLLIYRASNLEAGVPDRFSGSGSKTDFTLTISPVEAEDAATYYCQQSREYPYTFGGGTKLEIK
notes: IgG
B2: MYT0633 (antibody, V domains shown)
VH: QVQLVQSGAEVVKPGASVKISCKASGYTFTGYFMNWVKQSPGQSLEWIGRIHPYDGDTFYNQKFQGKATLTVDKSSNTAHMELLSLTSEDFAVYYCTRYDGSHAMDYWGQGTTVTVSS
VL: DIVLTQSPLSLAVSLGQPAIISCKASQSVSFAGTSLMHWYHQKPGQQPRLLIYRASNLEAGVPDRFSGSGSKTDFTLTISPVEAEDAATYYCQQSREYPYTFGGGTKLEIK
notes: IgG
B3: MYT0629 (antibody, V domains shown)
VH: QVQLVQSGAEVVKPGASVKISCKASGYTFTGYFMNWVKQSPGQSLEWIGRIHPYDGDTFYNQKFQGKATLTVDKSSNTAHMELLSLTSEDFAVYYCTRHDGSRAMDYWGQGTTVTVSS
VL: DIVLTQSPLSLAVSLGQPAIISCKASQSVSFAGTSLMHWYHQKPGQQPRLLIYRASNLEAGVPDRFSGSGSKTDFTLTISPVEAEDAATYYCQQSREYPYTFGGGTKLEIK
notes: IgG
B4: MYT0630 (antibody, V domains shown)
VH: QVQLVQSGAEVVKPGASVKISCKASGYTFTGYFMNWVKQSPGQSLEWIGRIHPYDGDTFYNQKFQGKATLTVDKSSNTAHMELLSLTSEDFAVYYCTRYHGSRAMDYWGQGTTVTVSS
VL: DIVLTQSPLSLAVSLGQPAIISCKASQSVSFAGTSLMHWYHQKPGQQPRLLIYRASNLEAGVPDRFSGSGSKTDFTLTISPVEAEDAATYYCQQSREYPYTFGGGTKLEIK
notes: IgG
B5: MYT1158 (antibody, V domains shown)
VH: QVQLVQSGAEVVKPGASVKISCKASGHTFTGYFMNWVKQSPGQSLEWIGRIHPHDGDHFYNQKFQGKATLTVDKSSNTAHMELLSLTSEDFAVYYCTRYDGSRAMDYWGQGTTVTVSS
VL: DIVLTQSPLSLAVSLGQPAIISCKASQSVSFAGTSLMHWYHQKPGQQPRLLIYRASNLEAGVPDRFSGSGSKTDFTLTISPVEAEDAATYYCQQSREYPYTFGGGTKLEIK
notes: IgG
B6: MYT0635 (antibody, V domains shown)
VH: QVQLVQSGAEVVKPGASVKISCKASGYTFTGYFMNWVKQSPGQSLEWIGRIHPYDGDTFYNQKFQGKATLTVDKSSNTAHMELLSLTSEDFAVYYCTRYDGSRAHDYWGQGTTVTVSS
VL: DIVLTQSPLSLAVSLGQPAIISCKASQSVSFAGTSLMHWYHQKPGQQPRLLIYRASNLEAGVPDRFSGSGSKTDFTLTISPVEAEDAATYYCQQSREYPYTFGGGTKLEIK
notes: IgG
B7: MYT1155 (antibody, V domains shown)
VH: QVQLVQSGAEVVKPGASVKISCKHSGYTFTGYFMNWVKQSPGQSLEWIGRIHPHDGDHFYNQKFQGKATLTVDKSSNTAHMELLSLTSEDFAVYYCTRYDGSRAMDYWGQGTTVTVSS
VL: DIVLTQSPLSLAVSLGQPAIISCKASQSVSFAGTSLMHWYHQKPGQQPRLLIYRASNLEAGVPDRFSGSGSKTDFTLTISPVEAEDAATYYCQQSREYPYTFGGGTKLEIK
notes: IgG
B8: MYT1156 (antibody, V domains shown)
VH: QVQLVQSGAEVVKPGASVKISCKHSGYTFTGYFMNWVKQSPGQSLEWIGRIHPHDGDTHYNQKFQGKATLTVDKSSNTAHMELLSLTSEDFAVYYCTRYDGSRAMDYWGQGTTVTVSS
VL: DIVLTQSPLSLAVSLGQPAIISCKASQSVSFAGTSLMHWYHQKPGQQPRLLIYRASNLEAGVPDRFSGSGSKTDFTLTISPVEAEDAATYYCQQSREYPYTFGGGTKLEIK
notes: IgG
B9: MYT1561 (antibody, V domains shown)
VH: QVQLVQSGAEVVKPGASVKISCKASGYTFTGYFMNWVKQSPGQSLEWIGRIHPYDGDTFYNQKFQGKATLTVDKSSNTAHMELLSLTSEDFAVYYCTRYDGSRAMDYWGQGTTVTVSS
VL: DIVLTQSPLSLAVSLGQPAIISCKAHQSVSFAGTSLMHWYHQKPGQQPRLLIYRASNLEAGVPDRFSGSGSKTDFTLTISPVEAEDAATYYCQQSREYPYTFGGGTKLEIK
notes: IgG
B10: MYT0626 (antibody, V domains shown)
VH: QVQLVQSGAEVVKPGASVKISCKASGYTFTGYFMNWVKQSPGQSLEWIGRIHPYDGDTFYNQKFQHKATLTVDKSSNTAHMELLSLTSEDFAVYYCTRYDGSRAMDYWGQGTTVTVSS
VL: DIVLTQSPLSLAVSLGQPAIISCKASQSVSFAGTSLMHWYHQKPGQQPRLLIYRASNLEAGVPDRFSGSGSKTDFTLTISPVEAEDAATYYCQQSREYPYTFGGGTKLEIK
notes: IgG
B11: MYT1562 (antibody, V domains shown)
VH: QVQLVQSGAEVVKPGASVKISCKASGYTFTGYFMNWVKQSPGQSLEWIGRIHPYDGDTFYNQKFQGKATLTVDKSSNTAHMELLSLTSEDFAVYYCTRYDGSRAMDYWGQGTTVTVSS
VL: DIVLTQSPLSLAVSLGQPAIISCKASHSVSFAGTSLMHWYHQKPGQQPRLLIYRASNLEAGVPDRFSGSGSKTDFTLTISPVEAEDAATYYCQQSREYPYTFGGGTKLEIK
notes: IgG
B12: MYT1157 (antibody, V domains shown)
VH: QVQLVQSGAEVVKPGASVKISCKHSGYTFTGYFMNWVKQSPGQSLEWIGRIHPYDGDHHYNQKFQGKATLTVDKSSNTAHMELLSLTSEDFAVYYCTRYDGSRAMDYWGQGTTVTVSS
VL: DIVLTQSPLSLAVSLGQPAIISCKASQSVSFAGTSLMHWYHQKPGQQPRLLIYRASNLEAGVPDRFSGSGSKTDFTLTISPVEAEDAATYYCQQSREYPYTFGGGTKLEIK
notes: IgG
B13: MYT0632 (antibody, V domains shown)
VH: QVQLVQSGAEVVKPGASVKISCKASGYTFTGYFMNWVKQSPGQSLEWIGRIHPYDGDTFYNQKFQGKATLTVDKSSNTAHMELLSLTSEDFAVYYCTRYDGHRAMDYWGQGTTVTVSS
VL: DIVLTQSPLSLAVSLGQPAIISCKASQSVSFAGTSLMHWYHQKPGQQPRLLIYRASNLEAGVPDRFSGSGSKTDFTLTISPVEAEDAATYYCQQSREYPYTFGGGTKLEIK
notes: IgG
B14: MYT0627 (antibody, V domains shown)
VH: QVQLVQSGAEVVKPGASVKISCKASGYTFTGYFMNWVKQSPGQSLEWIGRIHPYDGDTFYNQKFQGKATLTVDKSSNTAHMELLSLTSEDFAVYYCHRYDGSRAMDYWGQGTTVTVSS
VL: DIVLTQSPLSLAVSLGQPAIISCKASQSVSFAGTSLMHWYHQKPGQQPRLLIYRASNLEAGVPDRFSGSGSKTDFTLTISPVEAEDAATYYCQQSREYPYTFGGGTKLEIK
notes: IgG
B15: MYT1160 (antibody, V domains shown)
VH: QVQLVQSGAEVVKPGASVKISCKASGHTFTGYFMNWVKQSPGQSLEWIGRIHPYDGDHHYNQKFQGKATLTVDKSSNTAHMELLSLTSEDFAVYYCTRYDGSRAMDYWGQGTTVTVSS
VL: DIVLTQSPLSLAVSLGQPAIISCKASQSVSFAGTSLMHWYHQKPGQQPRLLIYRASNLEAGVPDRFSGSGSKTDFTLTISPVEAEDAATYYCQQSREYPYTFGGGTKLEIK
notes: IgG
B16: MYT1559 (antibody, V domains shown)
VH: QVQLVQSGAEVVKPGASVKISCKASGYTFTGYFMNWVKQSPGQSLEWIGRIHPYDGDTFYNQKFQGKATLTVDKSSNTAHMELLSLTSEDFAVYYCTRYDGSRAMDYWGQGTTVTVSS
VL: DIVLTQSPLSLAVSLGQPAIISCHASQSVSFAGTSLMHWYHQKPGQQPRLLIYRASNLEAGVPDRFSGSGSKTDFTLTISPVEAEDAATYYCQQSREYPYTFGGGTKLEIK
notes: IgG
B17: MYT0637 (antibody, V domains shown)
VH: QVQLVQSGAEVVKPGASVKISCKASGYTFTGYFMNWVKQSPGQSLEWIGRIHPYDGDTFYNQKFQGKATLTVDKSSNTAHMELLSLTSEDFAVYYCTRYDGSRAMDHWGQGTTVTVSS
VL: DIVLTQSPLSLAVSLGQPAIISCKASQSVSFAGTSLMHWYHQKPGQQPRLLIYRASNLEAGVPDRFSGSGSKTDFTLTISPVEAEDAATYYCQQSREYPYTFGGGTKLEIK
notes: IgG
B18: MYT1159 (antibody, V domains shown)
VH: QVQLVQSGAEVVKPGASVKISCKASGHTFTGYFMNWVKQSPGQSLEWIGRIHPHDGDTHYNQKFQGKATLTVDKSSNTAHMELLSLTSEDFAVYYCTRYDGSRAMDYWGQGTTVTVSS
VL: DIVLTQSPLSLAVSLGQPAIISCKASQSVSFAGTSLMHWYHQKPGQQPRLLIYRASNLEAGVPDRFSGSGSKTDFTLTISPVEAEDAATYYCQQSREYPYTFGGGTKLEIK
notes: IgG
B19: MYT1563 (antibody, V domains shown)
VH: QVQLVQSGAEVVKPGASVKISCKASGYTFTGYFMNWVKQSPGQSLEWIGRIHPYDGDTFYNQKFQGKATLTVDKSSNTAHMELLSLTSEDFAVYYCTRYDGSRAMDYWGQGTTVTVSS
VL: DIVLTQSPLSLAVSLGQPAIISCKASQHVSFAGTSLMHWYHQKPGQQPRLLIYRASNLEAGVPDRFSGSGSKTDFTLTISPVEAEDAATYYCQQSREYPYTFGGGTKLEIK
notes: IgG
B20: MYT0628 (antibody, V domains shown)
VH: QVQLVQSGAEVVKPGASVKISCKASGYTFTGYFMNWVKQSPGQSLEWIGRIHPYDGDTFYNQKFQGKATLTVDKSSNTAHMELLSLTSEDFAVYYCTHYDGSRAMDYWGQGTTVTVSS
VL: DIVLTQSPLSLAVSLGQPAIISCKASQSVSFAGTSLMHWYHQKPGQQPRLLIYRASNLEAGVPDRFSGSGSKTDFTLTISPVEAEDAATYYCQQSREYPYTFGGGTKLEIK
notes: IgG
B21: MYT0636 (antibody, V domains shown)
VH: QVQLVQSGAEVVKPGASVKISCKASGYTFTGYFMNWVKQSPGQSLEWIGRIHPYDGDTFYNQKFQGKATLTVDKSSNTAHMELLSLTSEDFAVYYCTRYDGSRAMHYWGQGTTVTVSS
VL: DIVLTQSPLSLAVSLGQPAIISCKASQSVSFAGTSLMHWYHQKPGQQPRLLIYRASNLEAGVPDRFSGSGSKTDFTLTISPVEAEDAATYYCQQSREYPYTFGGGTKLEIK
notes: IgG

molecular target: T1, FOLR1 (R&D Systems, Cat #5646-FR) (human, UniProt P15328 25-233); assay: BLI, IgG on anti-human Fc sensor, 50 nM FOLR1
T1 construct: Bought soluble protein; also called Folate Receptor 1
T1 sequence (P15328 25-233 limits assumed): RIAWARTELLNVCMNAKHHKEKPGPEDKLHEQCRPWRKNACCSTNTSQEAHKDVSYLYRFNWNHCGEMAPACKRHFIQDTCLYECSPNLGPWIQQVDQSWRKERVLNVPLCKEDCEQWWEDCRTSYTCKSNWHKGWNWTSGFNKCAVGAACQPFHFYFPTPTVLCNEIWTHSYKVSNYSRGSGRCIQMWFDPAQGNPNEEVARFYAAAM

Binding result, binds:
B1
B2
B3
B4
B5
B6
B7
B8
B9
B10
B11
B12
B13
B14
B15
B16
B17
B18
B19
B20
B21

From US20220298260A1 (MYTHIC THERAPEUTICS, published 2022)
